Substitutions are numbered along the chain they refer to. In names and notes the source's numbering stands.
T1: human tissue factor pathway inhibitor (TFPI) (human, UniProt P10646 29-304, limits assumed)
T1 construct: bought; also called hTFPI; human TFPI
T1 sequence (looked up): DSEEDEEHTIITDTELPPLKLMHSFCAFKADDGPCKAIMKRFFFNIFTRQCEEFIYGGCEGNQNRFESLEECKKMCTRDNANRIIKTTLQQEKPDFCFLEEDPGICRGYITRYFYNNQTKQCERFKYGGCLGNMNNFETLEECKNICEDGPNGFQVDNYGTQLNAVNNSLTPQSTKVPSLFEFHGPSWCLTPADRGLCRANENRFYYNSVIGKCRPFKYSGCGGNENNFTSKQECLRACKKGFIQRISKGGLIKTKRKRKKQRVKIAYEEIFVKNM

T2: mouse tissue factor pathway inhibitor (TFPI) (mouse, UniProt O54819 29-289, limits assumed)
T2 construct: bought; also called mTFPI; murine TFPI
T2 sequence (looked up): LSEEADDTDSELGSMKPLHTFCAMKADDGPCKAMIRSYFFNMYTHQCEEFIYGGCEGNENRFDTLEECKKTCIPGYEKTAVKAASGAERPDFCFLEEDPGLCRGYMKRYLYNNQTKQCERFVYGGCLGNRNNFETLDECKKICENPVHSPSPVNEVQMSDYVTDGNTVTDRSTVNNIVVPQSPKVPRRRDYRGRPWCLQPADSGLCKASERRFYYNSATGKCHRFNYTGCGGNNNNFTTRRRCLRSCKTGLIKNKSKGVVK

B1: 4B7 LC_S32Y (Fab, V domains shown)
VH: QVQLQQSGPGLVKPSQTLSLTCAISGDSVSSNSAAWSWIRQSPGRGLEWLGIIYKRSKWYNDYAVSVKSRITINPDTSKNQFSLQLNSVTPEDTAVYYCARWHSDKHWGFDYWGQGTLVTVSS
VL: DIVMTQSPLSLPVTPGEPASISCRSSQSLVFYDGNTYLNWYLQKPGQSPQLLIYKGSNRASGVPDRFSGSGSGTDFTLKISRVEAEDVGVYYCQQYDSYPLTFGQGTKVEIKR
B2: 4B7 LC_Y37F (Fab, V domains shown)
VH: B1 VH
VL: B1 VL with Y32S, Y37F
B3: 4B7 LC_S61C (Fab, V domains shown)
VH: B1 VH
VL: B1 VL with Y32S, S61C
B4: 4B7 LC_S57Y (Fab, V domains shown)
VH: B1 VH
VL: B1 VL with Y32S, S57Y
B5: gB9.7-IgG (4B7 HC N32D+G44S+K55Y+D62R+Y112D/LC S32R+N35I) (antibody, V domains shown)
VH: B1 VH with N32D, G44S, K55Y, D62R, Y112D
VL: B1 VL with Y32R, N35I
notes: IgG format by its name
B6: B2.0 (4B7 HC N32D+D62R+Y112D/LC S32R+D33F+N35I+D97T) (Fab, V domains shown)
VH: B1 VH with N32D, D62R, Y112D
VL: B1 VL with Y32R, D33F, N35I, D97T
B7: B27.1 (4B7 HC N32D+D62R+Y112D/LC N35T+D97T) (Fab, V domains shown)
VH: B1 VH with N32D, D62R, Y112D
VL: B1 VL with Y32S, N35T, D97T
B8: gB9.7 (4B7 HC Q1E+N32D+G44S+K55Y+D62R+Y112D/LC S32R+N35I) (Fab, V domains shown)
VH: B1 VH with Q1E, N32D, G44S, K55Y, D62R, Y112D
VL: B1 VL with Y32R, N35I
B9: B41.2 (4B7 HC N32D+D62R+Y112D/LC S32R+D33F+N35I) (Fab, V domains shown)
VH: B1 VH with N32D, D62R, Y112D
VL: B1 VL with Y32R, D33F, N35I
B10: B18.5 (4B7 HC N32D+D62Q+Y112D/LC F31I+D33F+N35I) (Fab, V domains shown)
VH: B1 VH with N32D, D62Q, Y112D
VL: B1 VL with F31I, Y32S, D33F, N35I
B11: B9.7 (4B7 HC N32D+D62R+Y112D/LC S32R+N35I) (Fab, V domains shown)
VH: B1 VH with N32D, D62R, Y112D
VL: B1 VL with Y32R, N35I
B12: B32.5 (4B7 HC D62R+Y112D/LC D33F+N35I) (Fab, V domains shown)
VH: B1 VH with D62R, Y112D
VL: B1 VL with Y32S, D33F, N35I
B13: 2A8 HC_I51D (Fab, V domains shown)
VH: QVQLVESGGGLVQPGGSLRLSCAASGFTFRSYGMSWVRQAPGKGLEWVSSDRGSSSSTYYADSVKGRFTISRDNSKNTLYLQMNSLRAEDTAVYYCARKYRYWFDYWGQGTLVTVSS
VL: DIELTQPPSVSVAPGQTARISCSGDNLRNYYAHWYQQKPGQAPVVVIYYDNNRPSGIPERFSGSNSGNTATLTISGTQAEDEADYYCQSWDDGVPVFGGGTKLTVLG
notes: also called 2A8-12
B14: 2A8 HC_F104Y (Fab, V domains shown)
VH: B13 VH with D51I, F104Y
VL: B13 VL
B15: 2A8 LC_D91R (Fab, V domains shown)
VH: B13 VH with D51I
VL: B13 VL with D91R
B16: 2A8 LC_V96G (Fab, V domains shown)
VH: B13 VH with D51I
VL: B13 VL with V96G
B17: 2A8 HC_S54D (Fab, V domains shown)
VH: B13 VH with D51I, S54D
VL: B13 VL
B18: 2A8 HC_S35L (Fab, V domains shown)
VH: B13 VH with S35L, D51I
VL: B13 VL
B19: 2A8 LC_D92S (Fab, V domains shown)
VH: B13 VH with D51I
VL: B13 VL with D92S
B20: 2A8 HC_G33K (Fab, V domains shown)
VH: B13 VH with G33K, D51I
VL: B13 VL
B21: 2A8 LC_V96M (Fab, V domains shown)
VH: B13 VH with D51I
VL: B13 VL with V96M
B22: 2A8 HC_S55A (Fab, V domains shown)
VH: B13 VH with D51I, S55A
VL: B13 VL
B23: 2A8 LC_P54L (Fab, V domains shown)
VH: B13 VH with D51I
VL: B13 VL with P54L
B24: 2A8 LC_D92T (Fab, V domains shown)
VH: B13 VH with D51I
VL: B13 VL with D92T
B25: 2A8 LC_V96W (Fab, V domains shown)
VH: B13 VH with D51I
VL: B13 VL with V96W
B26: 2A8 LC_N52G (Fab, V domains shown)
VH: B13 VH with D51I
VL: B13 VL with N52G

The binders below were run against T1, human tissue factor pathway inhibitor … (assay: competitive ELISA).

variant/wild-type	Binder
2 ratio	B1
3.6 ratio	B2
3.1 ratio	B3
1.6 ratio	B4

What follows are binders tested against T1, human tissue factor pathway inhibitor … (assay: SPR, TFPI immobilized).

KD fold improvement	Kd	koff	kon	Binder
1450 fold	7.65 pM	1.56e-05 s⁻¹	2.03e+06 M⁻¹ s⁻¹	B5
2180 fold	5.1 pM	3.81e-05 s⁻¹	7.46e+06 M⁻¹ s⁻¹	B6
875 fold	12.7 pM	3.53e-05 s⁻¹	2.78e+06 M⁻¹ s⁻¹	B7
1090 fold	10.2 pM	9.55e-06 s⁻¹	938000 M⁻¹ s⁻¹	B8
1550 fold	7.16 pM	2.47e-05 s⁻¹	3.46e+06 M⁻¹ s⁻¹	B9
428 fold	26 pM	3.18e-05 s⁻¹	1.23e+06 M⁻¹ s⁻¹	B10
1270 fold	8.78 pM	2.61e-05 s⁻¹	2.97e+06 M⁻¹ s⁻¹	B11
749 fold	14.8 pM	3.19e-05 s⁻¹	2.15e+06 M⁻¹ s⁻¹	B12

Each binder was assayed against T2, mouse tissue factor pathway inhibitor … (assay: equilibrium ELISA).

variant/wild-type	Binder
6.7 ratio	B1
1.9 ratio	B2
15.3 ratio	B3
2.2 ratio	B4

These binders were tested against T2, mouse tissue factor pathway inhibitor … (assay: competitive ELISA).

variant/HC_D62R	Binder
40 ratio	B6
9.5 ratio	B7
25.5 ratio	B8
42 ratio	B9
14 ratio	B10
30.1 ratio	B11
20.8 ratio	B12

Molecular target: T1, human tissue factor pathway inhibitor …
Assay: competitive ELISA
Remark: another data set of the same source

variant/HC_D62R	Binder
26.2 ratio	B6
26 ratio	B7
22.6 ratio	B8
29.7 ratio	B9
22.4 ratio	B10
26.1 ratio	B11
20.3 ratio	B12

These binders were tested against T2, mouse tissue factor pathway inhibitor … (assay: SPR, TFPI immobilized).

KD fold improvement	Kd	koff	kon	Binder
6250 fold	8.75 pM	2.36e-05 s⁻¹	2.7e+06 M⁻¹ s⁻¹	B5
1210 fold	45.1 pM	0.000315 s⁻¹	6.99e+06 M⁻¹ s⁻¹	B6
299 fold	183 pM	0.000742 s⁻¹	4.06e+06 M⁻¹ s⁻¹	B7
275 fold	199 pM	0.000185 s⁻¹	929000 M⁻¹ s⁻¹	B8
1060 fold	51.9 pM	0.000245 s⁻¹	4.73e+06 M⁻¹ s⁻¹	B9
139 fold	395 pM	0.00043 s⁻¹	1.09e+06 M⁻¹ s⁻¹	B10
588 fold	93.1 pM	0.000334 s⁻¹	3.59e+06 M⁻¹ s⁻¹	B11
528 fold	104 pM	0.000468 s⁻¹	4.52e+06 M⁻¹ s⁻¹	B12

Molecular target: T1, human tissue factor pathway inhibitor …
Assay: SPR, TFPI immobilized
Remark: another data set of the same source

Improvement	Kd	koff	kon	Binder
1.63 fold	1370 pM	0.00495 s⁻¹	3.61e+06 M⁻¹ s⁻¹	B13

Molecular target: T2, mouse tissue factor pathway inhibitor …
Assay: competitive ELISA
Remark: another data set of the same source

variant/wild-type	Binder
1.5 ratio	B14
2 ratio	B15
1.2 ratio	B16
1.2 ratio	B17
1.5 ratio	B18
2.6 ratio	B19
0.7 ratio	B20
1.5 ratio	B21
1.2 ratio	B22
2.7 ratio	B23
1.2 ratio	B24
4.3 ratio	B25
1.5 ratio	B26
1.4 ratio	B13

Molecular target: T1, human tissue factor pathway inhibitor …
Assay: competitive ELISA
Remark: another data set of the same source

variant/wild-type	Binder
2 ratio	B14
3.1 ratio	B15
3.2 ratio	B16
1.7 ratio	B17
1.7 ratio	B18
3.8 ratio	B19
1.8 ratio	B20
3.5 ratio	B21
2 ratio	B22
5.3 ratio	B23
2.6 ratio	B24
4 ratio	B25
3.4 ratio	B26
3.9 ratio	B13
